This data set is described as follows: yeast display, Sf9 membrane polyspecificity reagent, FACS + sequencing; frameworks hold sequencing errors. The method, boiled down:
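Using colony PCR, genes from sorted yeast display clones were amplified, then sequenced on MiSeq at 2 × 250 and filtered by CDR length. The clones had been stained with 10% biotinylated, detergent-solubilized Sf9 membrane reagent for 1 hour at 4 °C and sorted by FACS into low and high (top ~1%) gates on anti-HA and streptavidin fluorescence. Polyreactivity labels come from the gate of origin.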
In the case of “QVQLVESGGGLVQAGGSLRLSCAASGSIFWGNAMGWYRQAPGKERELVAAIDWSGGSTYYADSVKGRFTISRDNAKNTVYLQMHSLKPEDTAVYYCAASGRYDYDYWGQGTQVTVSS”, the “polyreactivity (PSR sort gate)” value was “low polyreactivity”.
Turning to “QVQLVESGGGLVQAGGSLRLSCAASGSIFWGNAMGWYRQAPGKERELVAGISRGGSTYYADSVKGRFTISRDNAKNTVYLQMNSLKPEDTAVYYCNADSDPVTAGYDYWGQGTQVTVSS”, the “polyreactivity (PSR sort gate)” value is given as “low polyreactivity”.
With “QVQLVESGGGLVQAGGSLRLSCAASGSIFWGNTMGWYRQAPGKERELVAAISRSGSSTYYADSVKGRFTISRDNAKNTVYLQMNSLKPEDTAVYYCAASVPYYTGYYYNAYEYWGQGTQVTVSS”, the “polyreactivity (PSR sort gate)” value was “high polyreactivity”.
The same measure for “QVQLVESGGGLVQAGGSLRLSCAASGSIFWHNAMGWYRQAPGTEREFVAAISGSGGSTYYADSVKGRFTISRDNAKNTVYLQMISLKPEDTAVYYCAADIYYWSFYYSRYDYWGQGTQVTVSS”: “high polyreactivity”; for “QVQLVESGGGLVQAGGSLRLSCAASGSIFWKNAMGWYRQAPGKERELVAAITRRGGSTYYADSVKGRFTISRDNAKNTVYLQMNSLKPEDTAVYYCAATGGAPYKIEWGQGTQVTVSS”: “low polyreactivity”.
With “QVQLVESGGGLVQAGGSLRLSCAASGSIFWKYAMGWYRQAPGKERELVAAISDGVSTNYADSVKGRFTISRDNAQNTVYLQMNSLKPEDTAVYYCNAETRERDPTREFDYWGQGTQVTVSS” the entry was “low polyreactivity”.
With “QVQLVESGGGLVQAGGSLRLSCAASGSIFWNAMGWNKQAPGKERELVAAISWSGTRTYYADSVKGRFTISRDNAKNTVYLQMNSLKPEDTAVYYCNAVQWNAYYYWGQGTQVTVSS” the entry was “high polyreactivity”; with “QVQLVESGGGLVQAGGSLRLSCAASGSIFWNNDMGWYRPAPGKERELVAGISGGSTNYADSVKGRFTISRDNAKNTVYLQMNSLKPEDTAVYYCATERQWESRLEAYDYWGQGTQVTVSS”, “low polyreactivity”.
In the case of “QVQLVESGGGLVQAGGSLRLSCAASGSIFWPNAMGWYRQAPGKERELVAAISRGGSTNYADSVKGRFTISRDNAKNTVYLQMNSLKPEDTAVYYCATDAYYYNLLYLFPRYDYWGQGTQVTVSS”, the “polyreactivity (PSR sort gate)” value is on record as “low polyreactivity”.
Take “QVQLVESGGGLVQAGGSLRLSCAASGSIFWPYAMGWYRQAPGKEREFVAAITWSGGSTYYADSVKGRFTISRDNAKNTVYLQMNSLKPEDTAVYYCAAEITWYYHDFGYWGQGTQVTVSS”: the “polyreactivity (PSR sort gate)” value is listed as “high polyreactivity”.
For “QVQLVESGGGLVQAGGSLRLSCAASGSIFWPYTMGWSRQAPGKECELVAAITSTDSTDYADSVKGRFTISRDNAKNTVYLQMNSLKPEDTAVYYCNADYQSRTGSGIYTDHPYDYWGQGTQVTVSS”, the “polyreactivity (PSR sort gate)” value is “low polyreactivity”.
The same measure for “QVQLVESGGGLVQAGGSLRLSCAASGSIFWQYAMGWYRQAPGKERELVAAINWSGDTTYYADSVKGRFTISRDNAKNTVYLQMNSLKPEDTAVYYCAAVGGVSFGGSPKTHAGEDYWGQGTQVTVSS”: “low polyreactivity”; for “QVQLVESGGGLVQAGGSLRLSCAASGSIFWRNAMGWYRQAPGKEREFVAAISARGGSTYYADSVKGRFTISRDNAKNTVYLQMNSLKPEDSAVYDCAASWGLGTYSDSTYWGGYYYWGQGTQVTVSS”: “low polyreactivity”.
The same measure for “QVQLVESGGGLVQAGGSLRLSCAASGSIFWRNAMGWYRQAPGKERELVAAISGNGGTTYYADSVKGRFTISRDNAKNTVYLQMNSLKPEDTAVYYCAKVGKTYRTYEYWGQGTQVTVSS”: “high polyreactivity”; for “QVQLVESGGGLVQAGGSLRLSCAASGSIFWRYAMGWYRQAPGKERELVAAIDVSGATTYYADSVKGRFTISRDNAKNTVYLQMNSLKPEDTAVYYCATYATNSVAAYDYWGQGTQVTVSS”: “low polyreactivity”; for “QVQLVESGGGLVQAGGSLRLSCAASGSIFWRYAMGWYRQAPGKERELVAVISDRGGITYYADSVKGRFTISRDNAKNTVYLQMNSLKPEDTAVYYCNAVDSDRSDPSEYDYWGQGTQVTVSS”: “low polyreactivity”.
With “QVQLVESGGGLVQAGGSLRLSCAASGSIFWSNARGWYRQAPGKERELVATIDDDVGSTYYADSVKGRFTISRDNAKNTVYLQMNSLKPEDTAVYYCAADSVYYVMPYEYWGQGTQVTVSS” the entry was “low polyreactivity”; with “QVQLVESGGGLVQAGGSLRLSCAASGSIFWSYAMGWYRQAPGKEREFVASITGSGGTTTYADSVKGRFTISRDNAKNTVYLQMNSLKPEDTAVYYCNARLHGWYHVYYIYDYWGQGTQVTVSS”, “low polyreactivity”; with “QVQLVESGGGLVQAGGSLRLSCAASGSIFWTKAMGWYRQAPGKERELVARITYSGGSTYYADSVKGRFTISRDNAKNTVYLQMNSLKPEDTAVYYCNARTHGWPYSRYYYWGQGTQVTVSS”, “high polyreactivity”.
Turning to “QVQLVESGGGLVQAGGSLRLSCAASGSIFWVNGMGWYRQAPGKERELVAAITWSGGSTYYADSVKGRFTISRDNAKNTVYLQMNSLKPEDTAVYYCAAYCQYYLWDGYGYWGQGTQVTVSS”, the “polyreactivity (PSR sort gate)” value is reported as “low polyreactivity”.
With “QVQLVESGGGLVQAGGSLRLSCAASGSIFWVYAMGWYRQAPGKERELVAAISSSGGRTYYADSVKGRFTISRDNAKNTVYLQMNSLKPEDTAVYYCASRWKTGYNYWGQGTQVTVSS” the entry was “high polyreactivity”; with “QVQLVESGGGLVQAGGSLRLSCAASGSIFWVYAMGWYRQAPGKERELVADISRSGGSTYYADSVKGRFTISRDNAKNTVYLQMNSLKPEDTAVYYCAAEYYGQVLFQPYVYQLMYYWGQGTQVTVSS”, “low polyreactivity”; with “QVQLVESGGGLVQAGGSLRLSCAASGSIFWWYAMGWYRPAPGKERELVAAISGRGGNTYYADSVKGRFTISRDNAKNTVYLQMNSLKPEDTAVYYCNADDTKYPYYTDDYWGQGTQVTVSS”, “low polyreactivity”.
The same measure for “QVQLVESGGGLVQAGGSLRLSCAASGSIFWYNAMGWYRQAPGKERELVAAIDRSGGNTYYADSVKGRFTISRDNAKNTVYLQMNSLKPEDTAVYYCARRIGRTYRYVYWGQGTQVTVSS”: “high polyreactivity”.
With “QVQLVESGGGLVQAGGSLRLSCAASGSIFWYNAMGWYRQAPGKERELVAAIRWRGGSTYYADSVKGRFTISRDNAKNTVYLQMNSLKPEDTAVYYCARDRYYRTLGYGYWGQGTQVNVSS” the entry was “high polyreactivity”; with “QVQLVESGGGLVQAGGSLRLSCAASGSIFWYNAMGWYRQAPGKERELVAAIRWRGGSTYYADSVKGRFTISRDNAKNTVYVQMSSLKPEDTAVYYCAAQVYVSQLYTSYYYWGQGTQVTVSS”, “high polyreactivity”; with “QVQLVESGGGLVQAGGSLRLSCAASGSIFWYYAMGWYRQAPGKERELVAAISISGSTYYADSVKGRFTISRDNAKNTVYLQMNSLKPEDTAVYYCAARKFFWRSNYDYWGQGTQVTVSS”, “low polyreactivity”.
On to “QVQLVESGGGLVQAGGSLRLSCAASGSIFWYYAMGWYRQAPGKERELVASISSSGGSTYYADSVKGRFTISRDNAKNTVYLQMNSLKPEYTAVYYCAKRTNWGYWYNSWGQGTQVTVSS”, for which the “polyreactivity (PSR sort gate)” value was “high polyreactivity”.
The same measure for “QVQLVESGGGLVQAGGSLRLSCAASGSIFWYYAMGWYRQAPGKERELVASITSAGSTNYADSVKGRFTISRDNAKNTVYLQMNSLKPEDTAVYYCNTDDDSSSTGYYSWGQGTQVTVSS”: “low polyreactivity”.
With “QVQLVESGGGLVQAGGSLRLSCAASGSIFYANTLGWYRQAPGTERELVAAINWSGGRTYYADSVKGRFTISRDNAKNTVYLQMNSLKPEDTAVYYCAASATYLYKYPVWGYDYWGQGTQVTVSS” the entry was “high polyreactivity”; with “QVQLVESGGGLVQAGGSLRLSCAASGSIFYANTMGWYRQAPGKEREFVAAITWSGGSTYYADSVKGRFTISRDNAKNTVYLQMNSLKPEDTAVYYCAAEEQRYWYEYYYWGQGTQVTVSS”, “high polyreactivity”.
Regarding “QVQLVESGGGLVQAGGSLRLSCAASGSIFYAYAMGWYRQAPGKEMELVAAIDTSGGRTYYADSVKGRFTISRDNAKNTVYLQLNSLKPEDTAVYYCDAECPCYNEHYYWGQGTQVTVSS”, the “polyreactivity (PSR sort gate)” value was “high polyreactivity”.
With “QVQLVESGGGLVQAGGSLRLSCAASGSIFYAYAMGWYRQAPGKERELVAAIRSSDSRTYYADSVKGRFTISRDNAKNTVYLQMNSLKPEDTAVYYCAADGSRKVKFDYWGQGTQVTVSS” the entry was “high polyreactivity”; with “QVQLVESGGGLVQAGGSLRLSCAASGSIFYDNAMGWYRQAPGKERELVAVISNSGRTDYADSVKGRFTISRDNAKNTVYLQMNSLKPEDTAVYYCAAVVQGTTVWWGYDYWGQGTQVTVSS”, “low polyreactivity”.
With “QVQLVESGGGLVQAGGSLRLSCAASGSIFYENMGWYRQAPGKERELVASISWSGTSTYADSVKGRFTISRDNAKNTVYLQMNSLKPEDTAVYYCAAGKNGYTYSRSYSYGYWGQGTQVTVSS” the entry was “high polyreactivity”; with “QVQLVESGGGLVQAGGSLRLSCAASGSIFYEYAMGWYRQAPGKEREFVAAISSSGGSTYYADSVKGRFTISRDNAKNTVYLQMNSLKPEDTAVYYCAADIYYYLWGLYYWGQGTQVTVSS”, “low polyreactivity”; with “QVQLVESGGGLVQAGGSLRLSCAASGSIFYFNAMGWYRQAPGKERELVAAINISGSSTSYADSVKGRFTISRDNAKNTVYLQMNSLKPEDTAVYYCYAGPYTYLHWNQAISRYYYWGQGTQVTVSS”, “low polyreactivity”.
The same measure for “QVQLVESGGGLVQAGGSLRLSCAASGSIFYFNAMGWYRQAPGKERELVAAITYSGGSTYYADSVKGRFTISRDNAKNTFYLQMNILKPEDTAVYYCAAERRTFPLRIFDYWGQGTQVTVSS”: “low polyreactivity”; for “QVQLVESGGGLVQAGGSLRLSCAASGSIFYFNGMGWYRQAPGKERELVAAITWGDGSTYYADSVKGRFTISRDNAKNTVYLQMNSLKREDNAVYYCAAVLLIFKYVPRYDYWGQGTQVTVSS”: “low polyreactivity”.
In the case of “QVQLVESGGGLVQAGGSLRLSCAASGSIFYGHAMGWYRQAPGKERELVATISWSTGSTYYADSVKGRFTISRDHAKNTVYLQMNSLKPEDTAVYYCAKEYFSKQWRGGYWGQGTQVTVSS”, the “polyreactivity (PSR sort gate)” value is reported as “high polyreactivity”.

The values above are taken from the nanobody polyreactivity screen of Harvey et al. (2022).
